The values below come from paper PMC12886537, “Dual-mode aptamer-driven biosensing platform for ultrasensitive and mutation-resilient detection of the SARS-CoV-2 nucleocapsid protein”.

In data set [1] the target is T1, SARS-CoV-2 nucleocapsid (N) protein (SARS-CoV-2 (original/prototype), UniProt P0DTC9 1-419). In words: SPR; single concentration. Conditions: protein: recombinant; tags: His; chain copies: 2.
For another data set, the target named is SARS-CoV N protein (SARS-CoV, UniProt P59595 1-422). The settings on record: protein: commercial, chain copies: 2.
Data set [2] has as its target T1, SARS-CoV-2 nucleocapsid (N) protein. In words: ELONA. The settings on record: protein: recombinant; tags: His; chain copies: 2; label: biotin (ELONA); 5'-FAM (flow cytometry, confocal). A general note: A flow cytometer gives signals particle by particle.

B1: NP11 (ssDNA)
DNA: TTTTTAAGCCCACTTTTCTGTGCCGGGCACAGCATGGGCTTGTCGTGCCATG
B1: the binding result in data set [1] is recorded as “binds”.

Turning to TTTTTAACACGACTCTCCTGTGGCATTGCCTGTCGTGCCATG (structured_DNA) [NP14a], the binding result with SARS-CoV N protein is on record as “binds”.

With TTTTTAACACGACTCTCCTGTGGCCAGCGAACTGATGTGCCATG (structured_DNA) [NP14b], the binding result with SARS-CoV N protein was “binds”.

B2: NP14 (structured_DNA)
DNA: TTTTTAACACGACTCTCCTGTGGCCAGCGAACTGATTGCCTGTCGTGCCATG
As for B2, the Kd in data set [2] was 3.68 nM; in the data set with SARS-CoV N protein (label: biotin (ELONA), 5'-FAM (flow cytometry, confocal)) it was 3.45 nM.

B3: NP1 (ssDNA)
DNA: TTTTTAACACGACCTCACTGTGCCGGCCACAGCTCACCACAGTGGGCCCATG
In the case of B3, in data set [1], the binding result is given as “binds”.

One may read the Kd as the equilibrium constant for the complex coming apart.
